Experimental data reported in IntAct's records for PubMed 21378754.

Columns and labels:
rab5a_human RAB5A = rab5a_human RAB5A (UniProt P20339)
rab8a_human RAB8A [1] = target: rab8a_human RAB8A (UniProt P61006)
rab1b_human RAB1B = rab1b_human RAB1B (UniProt Q9H0U4)
rab8a_human RAB8A [2] = target: rab8a_human RAB8A (UniProt P61006); remark: listed apart in the source
rab6a_human RAB6A = rab6a_human RAB6A (UniProt P20340)
rab8a_human RAB8A [3] = target: rab8a_human RAB8A (UniProt P61006); remark: listed apart in the source

Sequence of rab8a_human RAB8A (P61006 whole entry): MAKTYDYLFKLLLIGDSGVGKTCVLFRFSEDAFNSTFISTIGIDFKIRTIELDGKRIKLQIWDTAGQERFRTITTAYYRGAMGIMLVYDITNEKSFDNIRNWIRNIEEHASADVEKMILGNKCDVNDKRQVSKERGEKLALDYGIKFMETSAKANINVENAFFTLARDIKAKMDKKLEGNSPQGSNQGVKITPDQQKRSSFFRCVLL
Sequence of Inositol polyphosphate 5-phosphatase OCRL (Homo sapiens), Q01968 F668V (Q01968 whole entry F668V): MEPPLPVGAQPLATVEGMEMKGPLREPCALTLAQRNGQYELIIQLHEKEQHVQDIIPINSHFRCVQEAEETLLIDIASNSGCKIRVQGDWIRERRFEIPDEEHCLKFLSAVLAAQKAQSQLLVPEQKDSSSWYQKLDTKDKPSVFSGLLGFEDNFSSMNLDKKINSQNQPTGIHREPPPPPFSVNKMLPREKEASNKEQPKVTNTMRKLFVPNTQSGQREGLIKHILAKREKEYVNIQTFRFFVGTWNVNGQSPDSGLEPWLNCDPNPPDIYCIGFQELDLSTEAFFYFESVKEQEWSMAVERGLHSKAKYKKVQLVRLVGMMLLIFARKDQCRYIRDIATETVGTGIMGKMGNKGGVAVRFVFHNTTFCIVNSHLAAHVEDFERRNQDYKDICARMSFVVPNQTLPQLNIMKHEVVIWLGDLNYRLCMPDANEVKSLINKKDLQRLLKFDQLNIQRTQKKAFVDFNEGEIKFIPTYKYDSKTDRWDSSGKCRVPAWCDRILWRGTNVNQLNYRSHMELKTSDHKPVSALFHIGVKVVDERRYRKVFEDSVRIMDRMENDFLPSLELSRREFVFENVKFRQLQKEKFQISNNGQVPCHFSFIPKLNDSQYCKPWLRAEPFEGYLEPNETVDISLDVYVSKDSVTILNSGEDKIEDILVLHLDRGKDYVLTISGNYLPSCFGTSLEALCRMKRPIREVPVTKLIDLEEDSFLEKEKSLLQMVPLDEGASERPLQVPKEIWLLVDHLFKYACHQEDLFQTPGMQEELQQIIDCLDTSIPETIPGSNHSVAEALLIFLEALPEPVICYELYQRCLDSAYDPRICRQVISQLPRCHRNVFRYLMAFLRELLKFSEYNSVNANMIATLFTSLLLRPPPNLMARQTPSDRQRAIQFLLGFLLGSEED
Sequence of Inositol polyphosphate 5-phosphatase OCRL (Homo sapiens), Q01968 F668A (Q01968 whole entry F668A): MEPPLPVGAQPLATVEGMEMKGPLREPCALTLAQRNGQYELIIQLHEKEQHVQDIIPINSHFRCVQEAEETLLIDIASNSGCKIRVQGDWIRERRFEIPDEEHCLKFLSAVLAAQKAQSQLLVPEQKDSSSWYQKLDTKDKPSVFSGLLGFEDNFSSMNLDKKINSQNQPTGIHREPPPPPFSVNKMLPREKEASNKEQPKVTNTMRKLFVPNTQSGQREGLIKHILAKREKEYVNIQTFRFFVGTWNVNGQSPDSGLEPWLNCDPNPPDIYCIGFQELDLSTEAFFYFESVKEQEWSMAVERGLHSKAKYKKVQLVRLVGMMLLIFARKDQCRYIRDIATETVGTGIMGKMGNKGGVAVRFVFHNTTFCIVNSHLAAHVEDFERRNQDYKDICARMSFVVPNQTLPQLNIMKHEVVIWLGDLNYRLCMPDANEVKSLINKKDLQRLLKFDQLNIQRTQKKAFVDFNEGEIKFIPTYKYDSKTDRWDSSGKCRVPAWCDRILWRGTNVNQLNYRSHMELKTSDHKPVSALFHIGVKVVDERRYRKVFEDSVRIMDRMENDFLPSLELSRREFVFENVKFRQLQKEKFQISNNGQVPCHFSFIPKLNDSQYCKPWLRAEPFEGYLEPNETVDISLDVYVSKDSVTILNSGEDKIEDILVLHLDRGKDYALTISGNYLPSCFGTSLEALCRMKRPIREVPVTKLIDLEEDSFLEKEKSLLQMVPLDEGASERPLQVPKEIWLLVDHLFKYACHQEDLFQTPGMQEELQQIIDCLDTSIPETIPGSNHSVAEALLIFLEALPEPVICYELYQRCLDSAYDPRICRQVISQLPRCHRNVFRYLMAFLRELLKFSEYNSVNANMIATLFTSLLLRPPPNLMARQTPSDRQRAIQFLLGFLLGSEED
Sequence of rab6a_human RAB6A (P20340 whole entry, looked up): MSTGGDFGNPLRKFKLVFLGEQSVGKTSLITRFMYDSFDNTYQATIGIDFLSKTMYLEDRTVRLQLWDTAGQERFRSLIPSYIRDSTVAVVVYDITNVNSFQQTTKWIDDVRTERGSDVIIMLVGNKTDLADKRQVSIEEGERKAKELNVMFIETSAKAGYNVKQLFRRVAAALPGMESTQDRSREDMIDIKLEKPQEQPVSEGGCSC
Sequence of rab1b_human RAB1B (Q9H0U4 whole entry): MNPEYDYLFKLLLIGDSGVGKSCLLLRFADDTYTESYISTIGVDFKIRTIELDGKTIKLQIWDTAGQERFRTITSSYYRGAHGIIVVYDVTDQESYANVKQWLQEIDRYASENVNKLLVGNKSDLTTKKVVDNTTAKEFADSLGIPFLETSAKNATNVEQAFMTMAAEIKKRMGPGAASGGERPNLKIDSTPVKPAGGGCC
Sequence of rab5a_human RAB5A (P20339 whole entry): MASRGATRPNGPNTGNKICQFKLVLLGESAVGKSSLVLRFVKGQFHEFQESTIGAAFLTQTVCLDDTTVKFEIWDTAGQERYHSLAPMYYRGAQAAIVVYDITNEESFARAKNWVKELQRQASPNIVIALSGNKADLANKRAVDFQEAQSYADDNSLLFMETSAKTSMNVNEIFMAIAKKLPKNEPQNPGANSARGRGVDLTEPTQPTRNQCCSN

effect of a mutation on the interaction (rab5a_human RAB5A) | effect of a mutation on the interaction (rab8a_human RAB8A [1]) | effect of a mutation on the interaction (rab1b_human RAB1B) | effect of a mutation on the interaction (rab8a_human RAB8A [2]) | effect of a mutation on the interaction (rab6a_human RAB6A) | effect of a mutation on the interaction (rab8a_human RAB8A [3]) | Substance
disrupting interaction | decreasing interaction | – | – | – | – | Inositol polyphosphate 5-phosphatase OCRL (Homo sapiens), Q01968 F668A
– | – | disrupting interaction | disrupting interaction | disrupting interaction | decreasing interaction | Inositol polyphosphate 5-phosphatase OCRL (Homo sapiens), Q01968 F668V
